Experimental data as given in article doi:10.1101/854158 (bioRxiv, 2019).

T1: FANCA (human, UniProt O15360 1-1455)
T1 sequence: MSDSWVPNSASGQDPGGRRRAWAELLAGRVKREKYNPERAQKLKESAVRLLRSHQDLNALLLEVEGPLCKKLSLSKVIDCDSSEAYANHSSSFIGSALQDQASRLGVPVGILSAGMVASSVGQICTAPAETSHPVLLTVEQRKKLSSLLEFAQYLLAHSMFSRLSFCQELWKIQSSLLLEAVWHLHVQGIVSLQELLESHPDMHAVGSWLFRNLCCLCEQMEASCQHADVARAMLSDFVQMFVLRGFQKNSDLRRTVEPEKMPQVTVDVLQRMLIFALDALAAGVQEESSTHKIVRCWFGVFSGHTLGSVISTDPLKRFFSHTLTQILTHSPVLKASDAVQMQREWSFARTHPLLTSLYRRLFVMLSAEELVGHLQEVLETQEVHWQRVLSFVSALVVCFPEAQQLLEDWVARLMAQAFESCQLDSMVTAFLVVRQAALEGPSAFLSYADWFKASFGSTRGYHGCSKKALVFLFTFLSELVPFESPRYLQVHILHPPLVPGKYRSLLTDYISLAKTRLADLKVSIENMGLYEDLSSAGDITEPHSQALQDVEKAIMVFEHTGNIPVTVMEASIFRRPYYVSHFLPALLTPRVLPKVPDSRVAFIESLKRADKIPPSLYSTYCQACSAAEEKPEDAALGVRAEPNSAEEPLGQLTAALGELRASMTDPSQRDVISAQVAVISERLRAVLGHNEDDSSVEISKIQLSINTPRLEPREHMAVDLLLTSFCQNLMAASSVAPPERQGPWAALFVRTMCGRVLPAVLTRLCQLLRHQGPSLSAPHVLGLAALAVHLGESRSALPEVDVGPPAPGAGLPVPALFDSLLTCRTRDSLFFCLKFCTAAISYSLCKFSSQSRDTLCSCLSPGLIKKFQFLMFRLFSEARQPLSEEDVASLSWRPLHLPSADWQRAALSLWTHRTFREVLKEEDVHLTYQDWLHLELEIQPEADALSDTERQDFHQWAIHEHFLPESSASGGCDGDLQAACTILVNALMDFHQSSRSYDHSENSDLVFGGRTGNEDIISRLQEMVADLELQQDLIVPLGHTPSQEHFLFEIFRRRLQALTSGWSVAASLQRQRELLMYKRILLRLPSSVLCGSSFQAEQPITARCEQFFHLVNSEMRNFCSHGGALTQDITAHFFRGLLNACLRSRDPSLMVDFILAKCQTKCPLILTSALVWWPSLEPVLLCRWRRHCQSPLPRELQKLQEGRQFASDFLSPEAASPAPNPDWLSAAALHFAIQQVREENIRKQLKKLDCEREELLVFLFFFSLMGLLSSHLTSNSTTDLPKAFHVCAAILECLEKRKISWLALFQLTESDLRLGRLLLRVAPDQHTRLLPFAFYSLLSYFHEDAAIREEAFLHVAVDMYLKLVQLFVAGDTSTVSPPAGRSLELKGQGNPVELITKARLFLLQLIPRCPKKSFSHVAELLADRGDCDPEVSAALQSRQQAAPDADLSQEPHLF

T2: FAAP100 (human, UniProt Q0VG06 1-881)
T2 sequence: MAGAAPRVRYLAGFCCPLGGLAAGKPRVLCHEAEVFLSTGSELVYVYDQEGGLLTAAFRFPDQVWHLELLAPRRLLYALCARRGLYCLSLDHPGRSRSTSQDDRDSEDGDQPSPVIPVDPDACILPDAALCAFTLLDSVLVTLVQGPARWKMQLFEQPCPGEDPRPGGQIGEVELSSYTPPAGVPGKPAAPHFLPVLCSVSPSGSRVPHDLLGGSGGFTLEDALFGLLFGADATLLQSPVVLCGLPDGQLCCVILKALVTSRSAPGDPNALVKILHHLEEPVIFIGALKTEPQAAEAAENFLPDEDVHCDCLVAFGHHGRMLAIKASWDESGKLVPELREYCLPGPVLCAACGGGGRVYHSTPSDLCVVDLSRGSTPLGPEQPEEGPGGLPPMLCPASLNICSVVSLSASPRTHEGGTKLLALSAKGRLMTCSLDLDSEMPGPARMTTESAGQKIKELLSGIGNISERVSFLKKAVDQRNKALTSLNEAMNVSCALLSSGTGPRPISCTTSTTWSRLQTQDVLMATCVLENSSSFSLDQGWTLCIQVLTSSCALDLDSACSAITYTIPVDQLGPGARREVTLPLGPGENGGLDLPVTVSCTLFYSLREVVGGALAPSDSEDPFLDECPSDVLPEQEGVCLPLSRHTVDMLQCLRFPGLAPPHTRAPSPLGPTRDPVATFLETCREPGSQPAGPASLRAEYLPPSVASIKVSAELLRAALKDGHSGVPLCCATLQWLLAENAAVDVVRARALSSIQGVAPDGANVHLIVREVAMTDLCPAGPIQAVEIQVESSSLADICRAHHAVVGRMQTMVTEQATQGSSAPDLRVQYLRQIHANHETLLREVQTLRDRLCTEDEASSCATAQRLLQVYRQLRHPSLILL

T3: FANCC (human, UniProt Q00597 1-558)
T3 sequence: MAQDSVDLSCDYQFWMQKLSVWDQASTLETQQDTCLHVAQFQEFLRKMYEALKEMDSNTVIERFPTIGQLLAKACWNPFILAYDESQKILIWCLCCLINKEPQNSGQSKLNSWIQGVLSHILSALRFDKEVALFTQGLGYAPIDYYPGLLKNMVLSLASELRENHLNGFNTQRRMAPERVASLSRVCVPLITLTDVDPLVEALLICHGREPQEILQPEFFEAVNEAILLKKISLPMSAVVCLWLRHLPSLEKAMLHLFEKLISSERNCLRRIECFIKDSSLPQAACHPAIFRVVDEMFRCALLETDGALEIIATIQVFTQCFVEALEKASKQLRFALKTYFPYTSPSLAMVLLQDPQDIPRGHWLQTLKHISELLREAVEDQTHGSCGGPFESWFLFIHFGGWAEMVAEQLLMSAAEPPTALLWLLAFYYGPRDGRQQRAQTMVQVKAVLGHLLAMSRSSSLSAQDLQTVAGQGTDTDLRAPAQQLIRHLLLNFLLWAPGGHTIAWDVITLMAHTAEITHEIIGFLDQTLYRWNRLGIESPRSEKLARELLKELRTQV

B1: FANCB (natural protein)
chain: MTSKQAMSSNEQERLLCYNGEVLVFQLSKGNFADKEPTKTPILHVRRMVFDRGTKVFVQKSTGFFTIKEENSHLKIMCCNCVSDFRTGINLPYIVIEKNKKNNVFEYFLLILHSTNKFEMRLSFKLGYEMKDGLRVLNGPLILWRHVKAFFFISSQTGKVVSVSGNFSSIQWAGEIENLGMVLLGLKECCLSEEECTQEPSKSDYAIWNTKFCVYSLESQEVLSDIYIIPPAYSSVVTYVHICATEIIKNQLRISLIALTRKNQLISFQNGTPKNVCQLPFGDPCAVQLMDSGGGNLFFVVSFISNNACAVWKESFQVAAKWEKLSLVLIDDFIGSGTEQVLLLFKDSLNSDCLTSFKITDLGKINYSSEPSDCNEDDLFEDKQENRYLVVPPLETGLKVCFSSFRELRQHLLLKEKIISKSYKALINLVQGKDDNTSSAEEKECLVPLCGEEENSVHILDEKLSDNFQDSEQLVEKIWYRVIDDSLVVGVKTTSSLKLSLNDVTLSLLMDQAHDSRFRLLKCQNRVIKLSTNPFPAPYLMPCEIGLEAKRVTLTPDSKKEESFVCEHPSKKECVQIITAVTSLSPLLTFSKFCCTVLLQIMERESGNCPKDRYVVCGRVFLSLEDLSTGKYLLTFPKKKPIEHMEDLFALLAAFHKSCFQITSPGYALNSMKVWLLEHMKCEIIKEFPEVYFCERPGSFYGTLFTWKQRTPFEGILIIYSRNQTVMFQCLHNLIRILPINCFLKNLKSGSENFLIDNMAFTLEKELVTLSSLSSAIAKHESNFMQRCEVSKGKSSVVAAALSDRRENIHPYRKELQREKKKMLQTNLKVSGALYREITLKVAEVQLKSDFAAQKLSNL
B2: FANCG (natural protein)
chain: MSRQTTSVGSSCLDLWREKNDRLVRQAKVAQNSGLTLRRQQLAQDALEGLRGLLHSLQGLPAAVPVLPLELTVTCNFIILRASLAQGFTEDQAQDIQRSLERVLETQEQQGPRLEQGLRELWDSVLRASCLLPELLSALHRLVGLQAALWLSADRLGDLALLLETLNGSQSGASKDLLLLLKTWSPPAEELDAPLTLQDAQGLKDVLLTAFAYRQGLQELITGNPDKALSSLHEAASGLCPRPVLVQVYTALGSCHRKMGNPQRALLYLVAALKEGSAWGPPLLEASRLYQQLGDTTAELESLELLVEALNVPCSSKAPQFLIEVELLLPPPDLASPLHCGTQSQTKHILASRCLQTGRAGDAAEHYLDLLALLLDSSEPRFSPPPSPPGPCMPEVFLEAAVALIQAGRAQDALTLCEELLSRTSSLLPKMSRLWEDARKGTKELPYCPLWVSATHLLQGQAWVQLGAQKVAISEFSRCLELLFRATPEEKEQGAAFNCEQGCKSDAALQQLRAAALISRGLEWVASGQDTKALQDFLLSVQMCPGNRDTYFHLLQTLKRLDRRDEATALWWRLEAQTKGSHEDALWSLPLYLESYLSWIRPSDRDAFLEEFRTSLPKSCDL
B3: FANCF (natural protein)
chain: MESLLQHLDRFSELLAVSSTTYVSTWDPATVRRALQWARYLRHIHRRFGRHGPIRTALERRLHNQWRQEGGFGRGPVPGLANFQALGHCDVLLSLRLLENRALGDAARYHLVQQLFPGPGVRDADEETLQESLARLARRRSAVHMLRFNGYRENPNLQEDSLMKTQAELLLERLQEVGKAEAERPARFLSSLWERLPQNNFLKVIAVALLQPPLSRRPQEELEPGIHKSPGEGSQVLVHWLLGNSEVFAAFCRALPAGLLTLVTSRHPALSPVYLGLLTDWGQRLHYDLQKGIWVGTESQDVPWEELHNRFQSLCQAPPPLKDKVLTALETCKAQDGDFEVPGLSIWTDLLLALRSGAFRKRQVLGLSAGLSSV

Tests used:
Test in all cases: cryo-EM structure
FANCA = molecular target: T1, FANCA
cryo-EM structure = molecular target: the molecule itself
FANCB = molecular target: B1
FAAP100 = molecular target: T2, FAAP100
FANCC = molecular target: T3, FANCC
FANCG = molecular target: B2

binding result (FANCA) | binding result (FANCB) | binding result (FAAP100) | binding result (FANCC) | binding result (FANCG) | Binder | binding result (cryo-EM structure)
binds | – | – | – | – | B1 | binds
binds | binds | binds | – | – | B2 | –
– | – | – | binds | binds | B3 | –
